These are literature values, as cited in PMC5578180.

This data set deals with His193. As to the kind of experiment: kinetics. As to conditions: folded, green (pre-photoconversion) state of LEA under illumination.

As to “Least Evolved Ancestor (LEA), ancestral reconstructed green-to-red photoconvertible GFP-like fluorescent protein (synthetic construct (ancestral gene reconstruction of Faviina coral GFP-like proteins; lineage of the great star coral, printed as Monastrea cavernosa); A60V;Q62H;T69A;D74H;T104R;S105N;Y116N;M154T;V157I;R194C;R216H;del217;L219G)”, the pKa is 7.5.
